The values below come from patent US20040180051A1 (published 2004).

Where a chain is given by its changes, count along the chain named.

In experiment [1] the target is T1, human tissue factor (human TF) on human bladder carcinoma cells J82 (human, UniProt P13726 33-295).
T1 construct: whole, on cells; Target of the cell ELISA; also called the antigen
Put plainly: cell ELISA on fixed J82 cells;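 also: measures antigen binding in a cell ELISA on J82 cells grown one day in 96-well plates and fixed with 4% paraformaldehyde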; reference antibody (CHO DG44 expressed). For orientation: An ELISA detects its analyte on a solid surface through an enzyme-linked reagent.
Method: (§1) Cell ELISA plates for measurement of antigen binding were prepared as follows. Cells used were human bladder carcinoma cells J82 (ATCC HTB-1). To 60 wells of a 96-well cell culture plate, 1×10⁵ J82 cells were inoculated. This was cultured (RPMI1640 medium containing 10% fetal bovine serum (GIBCO)) for one day in a CO₂ incubator to allow the cells to be attached thereto. After discarding the culture liquid, each well was washed twice with 300 μl PBS. 100 μl of PBS containing 4% paraformaldehyde (hereinafter referred to as PFA/PBS) was added to each well, and placed on ice for 10 minutes to immobilize the cells.

Experiment [2] addresses T1, human tissue factor (human TF) on human …. Put plainly: cell ELISA on fixed J82 cells.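 Also: measures antigen binding in a cell ELISA on J82 cells grown one day in 96-well plates and fixed with 4% paraformaldehyde.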
Method: as §1

B1: chimeric ATR-5 antibody (antibody, V domains shown)
VH: EVQLQQSGTNLVRPGALVKLSCKGSGFNIKDYYMHWVKQRPEQGLEWIGGNDPANGHSMYDPKFQGKASITADTSSNTAYLQLSSLTSEDTAVYFCARDSGYAMDYWGQGTSVTVSS
VL: DIKMTQSPSSMYASLGERVTITCKASQDIKSFLSWYQQKPWKSPKTLIYYATSLADGVPSRFSGSGSGQDYSLTINNLESDDTATYYCLQHGESPYTFGGGTKLEIK
notes: Mouse V regions on human C regions; also called ch-ch; chimeric antibody
B1: in experiment [1], the binding result is reported as “binds”.

B2: humanized H chain version “c” combined with a chimeric L chain (antibody, V domains shown)
VH: QVQLLESGAVLARPGTSVKISCKASGFNIKDYYMHWVKQRPGQGLEWIGGNDPANGHSMYDPKFQGRVTMLVDTSKNQFSLRLSSVTAADTAVYYCARDSGYAMDYWGQGTLVTVSS
VL: B1 VL
notes: expressed in COS-7; also called c-ch
Regarding B2, the binding result in experiment [2] is given as “binds”.

B3: humanized H chain version “i” combined with a chimeric L chain (antibody, V domains shown)
VH: QVQLLESGAVLARPGTSVKISCKASGFNIKDYYMHWVKQRPGQGLEWIGGNDPANGHSMYDPKFQGRVTITADTSTSTVFMELSSLRSEDTAVYYCARDSGYAMDYWGQGTLVTVSS
VL: B1 VL
notes: expressed in COS-7; also called i-ch
As to B3, the binding result in experiment [2] is on record as “binds”.

B4: humanized H chain version “j” combined with a chimeric L chain (antibody, V domains shown)
VH: B3 VH with I70F, T76A, S77N, V79A, F80Y, S84R, E89A
VL: B1 VL
notes: expressed in COS-7; also called j-ch
For B4, the binding result in experiment [2] is reported as “binds”.

B5: humanized H chain version “a” combined with the humanized L chain version “a” (antibody, V domains shown)
VH: QVQLLESGAVLARPGTSVKISCKASGFNIKDYYMHWVKQRPGQGLEWIGGNDPANGHSMYDPKFQGRAKLTAATSASIAYLEFSSLTNEDSAVYYCARDSGYAMDYWGQGTLVTVSS
VL: DIQMTQSPSSLSASVGDRVTITCKASQDIKSFLSWYQQKPGKAPKLLIYYATSLADGVPSRFSGSGSGTDFTLTISSLQPEDFATYYCLQHGESPYTFGGGTKVEIK
notes: expressed in COS-7; also called a-a
Consider B5, for which the binding result in experiment [2] is “binds”.
